In patent publication US20030064921A1, “Methods and compounds for modulating melanocortin receptor ligand binding and activity” (The Regents of the University of California, priority 1999, published 2003):
Where no end group is shown, it is not given here.

Experiments:
[1] = biological target: T1, MC3R (Homo sapiens, UniProt P41968); assay: cAMP assay, suppression of α-MSH stimulated cAMP production; type: cell-based
Excerpt: (§1) Preferred assays measure, directly, or indirectly, melanocortin receptor induced changes in intracellular cAMP concentrations. One such assay measures the ability of cAMP to displace (8-^3H) cAMP from a high affinity cAMP binding protein (see Gilman (1979) Proc. Natl. Acad. Sci., USA, 67: 305-312). Briefly, test cells are exposed to the ligands to be screened. Following treatment, the cells are washed twice with phosphate buffered saline and intracellular cAMP extracted by lysing the cells with 1 mL of 60% ethanol. The assay is then run as described by Gilman, supra.).
(§2) The mini-AGRP binding was tested by examining its ability to displace NDP-MSH, a well established high affinity MCR agonist. […] Antagonist activity was then determined using a cAMP assay.

[2] = biological target: T2, MC4R (Homo sapiens, UniProt P32245); assay: as above; type: cell-based
Excerpt: as §1, §2

[3] = biological target: T1, MC3R; assay: Displacement of NDP-MSH at melanocortin receptor (binding)
Description: (§3) Suitable binding assays are well known to those of skill in the art. In a preferred embodiment, the binding assay is a competitive assay that measures the ability of the test composition to displace/compete a reference ligand from a melanocortin receptor. In one preferred approach specific binding of ligands of this invention to cells expressing the MC-3 receptor is determined by competition experiments using labeled (e.g. ^125I-labeled) Nle^4-D-Phe^7-α-MSH (NDP-MSH), as described in Tatro et al. (1990) Cancer Res. 50: 1237-1242).
as §2

[4] = biological target: T2, MC4R; assay: as above
Description: as §3, §2

[5] = biological target: MC IR (Homo sapiens, UniProt Q01726); assay: as above
Description: as §3, §2

[6] = biological target: MC5R (Homo sapiens, UniProt P33032); assay: as above
Description: as §3, §2

[7] = biological target: T3, human MC4r (Homo sapiens, UniProt P32245); assay: Inhibition of NDP-MSH stimulated cAMP generation in HEK-293 cells transfected with human MC4r; type: cell-based; details: 5.0×10^−6 M
T3 construct: expressed in transfected cells; host or cells: HEK-293
Description: Control experiments were performed with no MARP. […] Additional samples for HX experiments were prepared by lyophilization of protonated samples followed by reconstitution in 700 μl D2O.
This experiment measured inhibition of NDP-MSH stimulated cAMP generation in cells transfected with MC4r. A control experiment was conducted with no MARP present.

[8] = biological target: T1, MC3R; details: versus agouti; cited from earlier work
[9] = biological target: T2, MC4R; details: versus agouti; cited from earlier work
[10] = biological target: T4, human melanocortin receptor 4 (human, UniProt P32245 1-332); assay: displacement of NDP-MSH from the receptor
T4 construct: whole, on cells; also called MC4r; MC4R
T4 sequence (P32245 whole entry): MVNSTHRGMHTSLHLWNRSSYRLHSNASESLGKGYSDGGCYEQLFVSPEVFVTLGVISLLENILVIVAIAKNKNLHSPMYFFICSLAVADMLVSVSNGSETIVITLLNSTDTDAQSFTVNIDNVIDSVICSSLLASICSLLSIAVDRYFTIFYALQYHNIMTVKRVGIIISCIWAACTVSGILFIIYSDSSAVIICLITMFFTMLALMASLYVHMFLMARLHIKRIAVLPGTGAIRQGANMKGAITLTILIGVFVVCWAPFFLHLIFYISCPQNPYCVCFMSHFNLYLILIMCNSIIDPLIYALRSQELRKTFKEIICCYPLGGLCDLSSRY

T1 sequence (P41968 whole entry): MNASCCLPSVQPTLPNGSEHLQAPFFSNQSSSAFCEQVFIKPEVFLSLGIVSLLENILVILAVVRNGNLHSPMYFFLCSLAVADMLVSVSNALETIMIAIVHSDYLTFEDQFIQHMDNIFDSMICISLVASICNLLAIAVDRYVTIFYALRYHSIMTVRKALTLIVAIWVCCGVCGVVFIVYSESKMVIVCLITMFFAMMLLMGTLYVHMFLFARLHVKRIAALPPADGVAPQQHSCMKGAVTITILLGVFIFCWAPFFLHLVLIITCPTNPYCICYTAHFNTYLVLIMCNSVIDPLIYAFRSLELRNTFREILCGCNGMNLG
T2 sequence (P32245 whole entry): as the sequence (P32245 whole entry) above
T3 sequence (P32245 whole entry): as above
Sequence of MC5R (P33032 whole entry): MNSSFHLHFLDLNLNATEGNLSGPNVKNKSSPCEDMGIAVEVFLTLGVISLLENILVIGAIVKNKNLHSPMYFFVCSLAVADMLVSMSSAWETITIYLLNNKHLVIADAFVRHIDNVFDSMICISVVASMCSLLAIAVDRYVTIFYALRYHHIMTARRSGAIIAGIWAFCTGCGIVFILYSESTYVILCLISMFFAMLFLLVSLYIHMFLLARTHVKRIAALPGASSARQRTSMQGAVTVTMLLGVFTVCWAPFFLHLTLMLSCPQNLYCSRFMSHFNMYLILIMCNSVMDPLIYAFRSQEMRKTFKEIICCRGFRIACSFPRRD
Sequence of MC IR (Q01726 whole entry): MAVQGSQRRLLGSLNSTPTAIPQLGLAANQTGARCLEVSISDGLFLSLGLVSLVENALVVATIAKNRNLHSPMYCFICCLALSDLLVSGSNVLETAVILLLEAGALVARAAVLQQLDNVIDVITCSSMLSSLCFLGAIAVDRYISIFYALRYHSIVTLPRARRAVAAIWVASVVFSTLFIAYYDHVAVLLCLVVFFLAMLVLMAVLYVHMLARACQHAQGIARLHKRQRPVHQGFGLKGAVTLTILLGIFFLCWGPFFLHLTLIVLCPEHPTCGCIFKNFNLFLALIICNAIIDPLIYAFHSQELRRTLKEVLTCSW

Ac-CVRLHESCLGQQVPCCDPAATCYCRFFNAFCYCR-NH2 (disulfide (positions not given here); not fully specified (bridges); printed as Ac-CVRLHESCLGQQVPCCDPAATCYCRFFNAFCYCR-NH2) [mini-AGRP]
antagonist activity: suppression of α-MSH stimulated cAMP production [1]: potent activity | antagonist activity: suppression of α-MSH stimulated cAMP production [2]: potent activity | displacement of NDP-MSH, potency compared with AGRP(87-132) [3]: potency equivalent to that of AGRP(87-132) | displacement of NDP-MSH, potency compared with AGRP(87-132) [4]: potency equivalent to that of AGRP(87-132) | displacement of NDP-MSH, potency compared with AGRP(87-132) [5]: potency equivalent to that of AGRP(87-132) | displacement of NDP-MSH, potency compared with AGRP(87-132) [6]: potency equivalent to that of AGRP(87-132)

MARP with Arg-25 to Ala substitution: MARP single mutant with Arg-25 replaced by Ala in the active loop, chemically synthesized (Ac-CVRLHESCLGQQVPCCDPCATCYCAFFNAFCYCRKLGTAMNPCSRT; disulfide (positions not given here))
inhibition of NDP-MSH stimulated cAMP generation [7]: complete loss of inhibitory activity

B1: AGRP: human AGRP is a 132 residue polypeptide (SEQ ID NO:1), natural antagonist of melanocortin receptors 3 and 4 (protein, listed as Homo sapiens)
chain: MLTAAVLSCALLLALPATRGAQMGLAPMEGIRRPDQALLPELPGLGLRAPLKKTTAEQAEEDLLQEAQALAEVLDLQDREPRSSRRCVRLHESCLGQQVPCCDPCATCYCRFFNAFCYCRKLGTAMNPCSRT
binding affinity greater than agouti [8]: approximately 100 fold | binding affinity greater than agouti [9]: approximately 100 fold

B2: mini-AGRP Ac-CVRLHESCLGQQVPCCDPAATCYCRFFNAFCYCR-NH2 (peptide)
peptide: Ac-CVRLHESCLGQQVPCCDPAATCYCRFFNAFCYCR-NH2
modifications: disulfide (positions not given here); not fully specified (bridges); printed as Ac-CVRLHESCLGQQVPCCDPAATCYCRFFNAFCYCR-NH2; also: four disulfide bonds, pairing not given here
notes: Fmoc solid-phase synthesis, folded under oxidizing conditions
binding result [10]: binds
